Data from patent publication US20230407373A1 (priority 2020, published 2023).
Entries after “also recorded” stand apart in the source; their conditions may differ. Like-named read-outs stand apart in the source and are kept apart here.

Tests used:
SARS-CoV-2 gRNA = format: binding; settings: for target (unweighted spectral count of the protein in the RNP capture): LC-MS/MS, Probe I sample (first 199 lines of Table 2)
SARS-CoV-2 = format: cell-based; settings: for change in viral RNA levels (gRNA, N sgRNA) after siRNA depletion: Calu-3 cells, 50 nM siRNA, RT-qPCR, relative to siNC
HCoV-OC43 gRNA and sgRNA = format: binding; settings: for target (unweighted spectral count, OC43 Probe II capture) / target (spectral count) / background (spectral count): 36 hpi; for target (unweighted spectral count, OC43 Probe II capture): type n_36_v, FDR<10%; for target (unweighted spectral count, OC43 Probe II capture) / target (unweighted spectral count): tested against no-probe control; for target (unweighted spectral count): OC43 Probe II, infected cells; for target (unweighted spectral count, OC43 Probe II) / background (unweighted spectral count, no-probe control): type n_48_v, 48 hpi; for target (unweighted spectral count, OC43 Probe II): OC43 Probe II capture on infected cells; for background (unweighted spectral count, no-probe control): no-probe control on infected cells; for target (spectral count) / background (spectral count): type s_36_m, Probe II; for target (spectral count): HCoV-OC43-infected HCT-8 cells; for background (spectral count): uninfected-probe control
[1] = tested on: SARS-CoV-2 gRNA and sgRNAs; format: binding; settings: for target (unweighted spectral count in RNP capture): Probe II capture, LC-MS/MS LFQ; for background (unweighted spectral count in control): no-probe control pull-down, used as background for Probe II
gRNA of HCoV-OC43 = format: binding; settings: for target (spectral count) / background (spectral count): type g_36_m, 36 hpi, Probe I; for target (spectral count): HCoV-OC43-infected HCT-8 cells; for background (spectral count): uninfected-probe control; for target (spectral count, OC43 Probe I RNP capture) / background (spectral count, no-probe control): type n_48_v: 48 hours post-infection; for target (spectral count, OC43 Probe I RNP capture): infected cells, unweighted spectral count; for background (spectral count, no-probe control): no-probe control on infected cells

B1: FUBP3: host protein, UniProt Q96I24 (protein, UniProt Q96I24 2-572, looked up)
Far upstream element-binding …: AELVQGQSAPVGMKAEGFVDALHRVRQIAAKIDSIPHLNNSTPLVDPSVYGYGVQKRPLDDGVGNQLGALVHQRTVITEEFKVPDKMVGFIIGRGGEQISRIQAESGCKIQIASESSGIPERPCVLTGTPESIEQAKRLLGQIVDRCRNGPGFHNDIDSNSTIQEILIPASKVGLVIGRGGETIKQLQERTGVKMVMIQDGPLPTGADKPLRITGDAFKVQQAREMVLEIIREKDQADFRGVRGDFNSRMGGGSIEVSVPRFAVGIVIGRNGEMIKKIQNDAGVRIQFKPDDGISPERAAQVMGPPDRCQHAAHIISELILTAQERDGFGGLAAARGRGRGRGDWSVGAPGGVQEITYTVPADKCGLVIGKGGENIKSINQQSGAHVELQRNPPPNSDPNLRRFTIRGVPQQIEVARQLIDEKVGGTNLGAPGAFGQSPFSQPPAPPHQNTFPPRSSGCFPNMAAKVNGNPHSTPVSGPPAFLTQGWGSTYQAWQQPTQQVPSQQSQPQSSQPNYSKAWEDYYKKQSHAASAAPQASSPPDYTMAWAEYYRQQVAFYGQTLGQAQAHSQEQ
enrichment in SARS-CoV-2 Probe I RNP capture (SARS-CoV-2 gRNA): enriched; also recorded: found in the SARS-CoV-2 experiments
target (unweighted spectral count of the protein in the RNP capture) (SARS-CoV-2 gRNA): 94
change in viral RNA levels (gRNA, N sgRNA) after siRNA depletion (SARS-CoV-2): increased the viral RNA levels
target (unweighted spectral count, OC43 Probe II capture) (HCoV-OC43 gRNA and sgRNA): 42
target (unweighted spectral count) (HCoV-OC43 gRNA and sgRNA; 12 hpi (type n_12_v)): 11
target (unweighted spectral count) (HCoV-OC43 gRNA and sgRNA; 24 hpi (type n_24_v)): 27
enrichment / detection in HCoV-OC43 Probe II RNP capture (HCoV-OC43 gRNA and sgRNA; infected HCT-8 cells): enriched
target (unweighted spectral count, OC43 Probe II) (HCoV-OC43 gRNA and sgRNA): 71
background (unweighted spectral count, no-probe control) (HCoV-OC43 gRNA and sgRNA): 3
target (spectral count) (HCoV-OC43 gRNA and sgRNA): 42
background (spectral count) (HCoV-OC43 gRNA and sgRNA): 6
enrichment in SARS-CoV-2 Probe II RNP capture [1]: enriched; also recorded: found in the SARS-CoV-2 experiments
target (unweighted spectral count in RNP capture) [1]: 173
background (unweighted spectral count in control) [1]: 1
enrichment / detection in HCoV-OC43 Probe I RNP capture (gRNA of HCoV-OC43; infected HCT-8 cells): enriched
target (spectral count) (gRNA of HCoV-OC43): 49
background (spectral count) (gRNA of HCoV-OC43): 9
target (spectral count, OC43 Probe I RNP capture) (gRNA of HCoV-OC43): 47
background (spectral count, no-probe control) (gRNA of HCoV-OC43): 3

B2: ZC3HAV1: host protein, UniProt Q7Z2W4 (protein, UniProt Q7Z2W4 2-902, looked up)
Zinc finger CCCH-type …: ADPEVCCFITKILCAHGGRMALDALLQEIALSEPQLCEVLQVAGPDRFVVLETGGEAGITRSVVATTRARVCRRKYCQRPCDNLHLCKLNLLGRCNYSQSERNLCKYSHEVLSEENFKVLKNHELSGLNKEELAVLLLQSDPFFMPEICKSYKGEGRQQICNQQPPCSRLHICDHFTRGNCRFPNCLRSHNLMDRKVLAIMREHGLNPDVVQNIQDICNSKHMQKNPPGPRAPSSHRRNMAYRARSKSRDRFFQGSQEFLASASASAERSCTPSPDQISHRASLEDAPVDDLTRKFTYLGSQDRARPPSGSSKATDLGGTSQAGTSQRFLENGSQEDLLHGNPGSTYLASNSTSAPNWKSLTSWTNDQGARRKTVFSPTLPAARSSLGSLQTPEAVTTRKGTGLLSSDYRIINGKSGTQDIQPGPLFNNNADGVATDITSTRSLNYKSTSSGHREISSPRIQDAGPASRDVQATGRIADDADPRVALVNDSLSDVTSTTSSRVDDHDSEEICLDHLCKGCPLNGSCSKVHFHLPYRWQMLIGKTWTDFEHMETIEKGYCNPGIHLCSVGSYTINFRVMSCDSFPIRRLSTPSSVTKPANSVFTTKWIWYWKNESGTWIQYGEEKDKRKNSNVDSSYLESLYQSCPRGVVPFQAGSRNYELSFQGMIQTNIASKTQKDVIRRPTFVPQWYVQQMKRGPDHQPAKTSSVSLTATFRPQEDFCFLSSKKYKLSEIHHLHPEYVRVSEHFKASMKNFKIEKIKKIENSELLDKFTWKKSQMKEEGKLLFYATSRAYVESICSNNFDSFLHETHENKYGKGIYFAKDAIYSHKNCPYDAKNVVMFVAQVLVGKFTEGNITYTSPPPQFDSCVDTRSNPSVFVIFQKDQVYPQYVIEYTEDKACVIS
enrichment in SARS-CoV-2 Probe I RNP capture (SARS-CoV-2 gRNA): enriched; also recorded: found in the SARS-CoV-2 experiments
target (unweighted spectral count of the protein in the RNP capture) (SARS-CoV-2 gRNA): 31
antiviral or proviral role of the host protein indicated by knockdown (SARS-CoV-2): may act as antiviral factors
change in viral RNA levels (gRNA, N sgRNA) after siRNA depletion (SARS-CoV-2): increased viral RNAs
target (unweighted spectral count, OC43 Probe II capture) (HCoV-OC43 gRNA and sgRNA): 18
target (unweighted spectral count) (HCoV-OC43 gRNA and sgRNA; 12 hpi (type n_12_v)): 8
target (unweighted spectral count) (HCoV-OC43 gRNA and sgRNA; 24 hpi (type n_24_v)): 13
target (unweighted spectral count, OC43 Probe II) (HCoV-OC43 gRNA and sgRNA): 22
background (unweighted spectral count, no-probe control) (HCoV-OC43 gRNA and sgRNA): 1
target (spectral count) (HCoV-OC43 gRNA and sgRNA): 18
background (spectral count) (HCoV-OC43 gRNA and sgRNA): 1
enrichment in SARS-CoV-2 Probe II RNP capture [1]: enriched; also recorded: found in the SARS-CoV-2 experiments
target (unweighted spectral count in RNP capture) [1]: 48
background (unweighted spectral count in control) [1]: 1
target (spectral count, OC43 Probe I RNP capture) (gRNA of HCoV-OC43): 17
background (spectral count, no-probe control) (gRNA of HCoV-OC43): 1

B3: CELF1: host protein, UniProt Q92879 (protein, UniProt Q92879 1-486, looked up)
CUGBP Elav-like family member …: MNGTLDHPDQPDLDAIKMFVGQVPRTWSEKDLRELFEQYGAVYEINVLRDRSQNPPQSKGCCFVTFYTRKAALEAQNALHNMKVLPGMHHPIQMKPADSEKNNAVEDRKLFIGMISKKCTENDIRVMFSSFGQIEECRILRGPDGLSRGCAFVTFTTRAMAQTAIKAMHQAQTMEGCSSPMVVKFADTQKDKEQKRMAQQLQQQMQQISAASVWGNLAGLNTLGPQYLALYLQLLQQTASSGNLNTLSSLHPMGGLNAMQLQNLAALAAAASAAQNTPSGTNALTTSSSPLSVLTSSGSSPSSSSSNSVNPIASLGALQTLAGATAGLNVGSLAGMAALNGGLGSSGLSNGTGSTMEALTQAYSGIQQYAAAALPTLYNQNLLTQQSIGAAGSQKEGPEGANLFIYHLPQEFGDQDLLQMFMPFGNVVSAKVFIDKQTNLSKCFGFVSYDNPVSAQAAIQSMNGFQIGMKRLKVQLKRSKNDSKPY
enrichment in SARS-CoV-2 Probe I RNP capture (SARS-CoV-2 gRNA): found in the SARS-CoV-2 experiments
change in viral RNA levels (gRNA, N sgRNA) after siRNA depletion (SARS-CoV-2): increased viral RNAs; also recorded: only modest
target (unweighted spectral count, OC43 Probe II capture) (HCoV-OC43 gRNA and sgRNA): 14
target (unweighted spectral count) (HCoV-OC43 gRNA and sgRNA; 24 hpi (type n_24_v)): 6
target (unweighted spectral count, OC43 Probe II) (HCoV-OC43 gRNA and sgRNA): 14
background (unweighted spectral count, no-probe control) (HCoV-OC43 gRNA and sgRNA): 1
target (spectral count) (HCoV-OC43 gRNA and sgRNA): 14
background (spectral count) (HCoV-OC43 gRNA and sgRNA): 1
enrichment in SARS-CoV-2 Probe II RNP capture [1]: found in the SARS-CoV-2 experiments
target (unweighted spectral count in RNP capture) [1]: 25
background (unweighted spectral count in control) [1]: 1
target (spectral count) (gRNA of HCoV-OC43): 15
background (spectral count) (gRNA of HCoV-OC43): 1
target (spectral count, OC43 Probe I RNP capture) (gRNA of HCoV-OC43): 16
background (spectral count, no-probe control) (gRNA of HCoV-OC43): 1
